B1: DGKZ, Q13574 (peptide)
chain: IQREDQETAV
B2: HTLV1-TAX1, P03409 (peptide)
chain: SEKHFRETEV
B3: DGKK, Q5KSL6 (peptide)
chain: DPLTPSRSQL

Experiments:
Test in all cases: holdup assay
Design in all cases: key: below the threshold = too weak to quantify, mostly under pKd 3.1 to 4
Conditions in all cases: plain residues with an end cap or a label only (N-terminal biotin on a linker: ttds)
[1] = biological target: T1, APBA3_2, O96018
T1 sequence (O96018 480-570, limits assumed, looked up): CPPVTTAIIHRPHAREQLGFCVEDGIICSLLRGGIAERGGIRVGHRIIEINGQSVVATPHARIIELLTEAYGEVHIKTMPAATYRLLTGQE

[2] = biological target: DVL2, O14641
[3] = biological target: T2, GIPC1, O14908
T2 sequence (O14908 128-223, limits assumed, looked up): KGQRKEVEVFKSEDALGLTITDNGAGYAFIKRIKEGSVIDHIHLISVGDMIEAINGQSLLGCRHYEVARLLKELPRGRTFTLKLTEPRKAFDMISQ

[4] = biological target: T3, GRIP1_1, Q9Y3R0
T3 sequence (Q9Y3R0 48-146, limits assumed, looked up): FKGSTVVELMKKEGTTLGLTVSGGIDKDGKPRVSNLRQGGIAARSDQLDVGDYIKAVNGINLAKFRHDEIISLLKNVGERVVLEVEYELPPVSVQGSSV

[5] = biological target: LMO7, Q8WWI1
[6] = biological target: T4, MPDZ_13, O75970
T4 sequence (O75970 1982-2070, limits assumed, looked up): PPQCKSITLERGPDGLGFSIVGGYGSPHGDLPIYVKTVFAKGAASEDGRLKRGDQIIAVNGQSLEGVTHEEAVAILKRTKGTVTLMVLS

[7] = biological target: T5, MPDZ_2, O75970
T5 sequence (O75970 252-347, limits assumed, looked up): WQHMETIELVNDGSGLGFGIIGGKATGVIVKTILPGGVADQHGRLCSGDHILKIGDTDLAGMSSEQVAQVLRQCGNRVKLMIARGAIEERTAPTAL

[8] = biological target: T6, MPP1, Q00013
T6 sequence (Q00013 66-162, limits assumed, looked up): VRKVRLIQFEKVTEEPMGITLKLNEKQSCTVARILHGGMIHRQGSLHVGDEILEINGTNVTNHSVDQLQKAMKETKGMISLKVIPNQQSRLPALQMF

[9] = biological target: T7, NHERF1_1, O14745
T7 sequence (O14745 9-104, limits assumed, looked up): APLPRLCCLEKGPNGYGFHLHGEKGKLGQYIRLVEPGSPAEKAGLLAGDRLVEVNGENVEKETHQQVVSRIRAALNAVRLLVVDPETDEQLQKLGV

[10] = biological target: PARD3_1, Q8TEW0
[11] = biological target: T8, PDZD2_3, O15018
T8 sequence (O15018 581-682, limits assumed, looked up): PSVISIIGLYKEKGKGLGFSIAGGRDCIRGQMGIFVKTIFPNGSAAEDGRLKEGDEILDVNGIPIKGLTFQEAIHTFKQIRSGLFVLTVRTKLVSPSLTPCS

[12] = biological target: T9, PDZD2_5, O15018
T9 sequence (O15018 2617-2716, limits assumed, looked up): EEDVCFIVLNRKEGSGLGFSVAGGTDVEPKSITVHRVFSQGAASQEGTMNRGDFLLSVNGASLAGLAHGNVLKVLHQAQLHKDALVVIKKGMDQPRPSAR

[13] = biological target: T10, PDZD7_2, Q9H5P4
T10 sequence (Q9H5P4 205-303, limits assumed, looked up): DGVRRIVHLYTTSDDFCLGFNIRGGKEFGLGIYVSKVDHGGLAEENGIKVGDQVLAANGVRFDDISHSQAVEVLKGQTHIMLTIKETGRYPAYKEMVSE

[14] = biological target: PDZD9, Q8IXQ8
[15] = biological target: T11, PDZRN3_2, Q9UPQ7
T11 sequence (Q9UPQ7 414-513, limits assumed, looked up): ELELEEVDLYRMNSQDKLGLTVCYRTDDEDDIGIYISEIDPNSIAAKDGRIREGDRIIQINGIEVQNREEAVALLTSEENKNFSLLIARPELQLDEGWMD

[16] = biological target: PDZRN4_2, Q6ZMN7
[17] = biological target: PREX1_1, Q8TCU6
[18] = biological target: T12, SHROOM3, Q8TF72
T12 sequence (Q8TF72 20-120, limits assumed, looked up): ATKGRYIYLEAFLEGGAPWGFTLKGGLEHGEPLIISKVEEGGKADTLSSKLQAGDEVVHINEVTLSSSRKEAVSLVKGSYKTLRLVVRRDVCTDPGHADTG

[19] = biological target: T13, SHROOM4, Q9ULL8
T13 sequence (Q9ULL8 5-102, limits assumed, looked up): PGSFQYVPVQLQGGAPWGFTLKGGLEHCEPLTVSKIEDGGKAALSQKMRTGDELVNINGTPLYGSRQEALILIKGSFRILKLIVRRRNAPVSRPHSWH

[20] = biological target: TJP1_1, Q07157
[21] = biological target: T14, TJP3_2, O95049
T14 sequence (O95049 190-282, limits assumed, looked up): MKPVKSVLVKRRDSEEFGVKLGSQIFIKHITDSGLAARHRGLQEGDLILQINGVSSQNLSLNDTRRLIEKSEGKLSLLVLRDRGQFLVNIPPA

[22] = biological target: T15, USH1C_3, Q9Y6N9
T15 sequence (Q9Y6N9 447-547, limits assumed, looked up): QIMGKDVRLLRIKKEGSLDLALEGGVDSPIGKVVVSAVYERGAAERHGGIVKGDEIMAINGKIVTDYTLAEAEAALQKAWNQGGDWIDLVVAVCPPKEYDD

Chain of PREX1_1, Q8TCU6 (Q8TCU6 608-718): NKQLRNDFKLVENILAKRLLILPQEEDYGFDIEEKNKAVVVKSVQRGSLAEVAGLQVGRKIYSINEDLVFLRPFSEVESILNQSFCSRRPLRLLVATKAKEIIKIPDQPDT
Chain of DVL2, O14641 (O14641 260-359): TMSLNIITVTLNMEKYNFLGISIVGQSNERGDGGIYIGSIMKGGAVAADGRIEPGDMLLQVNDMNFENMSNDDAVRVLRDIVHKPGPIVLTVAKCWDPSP
Chain of LMO7, Q8WWI1 (Q8WWI1 1037-1138): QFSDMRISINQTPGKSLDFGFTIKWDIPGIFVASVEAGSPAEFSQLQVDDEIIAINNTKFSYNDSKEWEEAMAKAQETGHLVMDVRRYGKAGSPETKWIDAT
Chain of PDZRN4_2, Q6ZMN7 (Q6ZMN7 389-498): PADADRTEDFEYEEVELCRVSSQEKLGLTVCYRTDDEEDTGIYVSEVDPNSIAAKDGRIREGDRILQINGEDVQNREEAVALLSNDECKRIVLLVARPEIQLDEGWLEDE
Chain of TJP1_1, Q07157 (Q07157 18-120): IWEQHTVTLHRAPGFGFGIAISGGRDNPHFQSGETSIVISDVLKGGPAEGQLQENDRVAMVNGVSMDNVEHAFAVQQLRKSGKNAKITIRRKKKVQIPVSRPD
Chain of PDZD9, Q8IXQ8 (Q8IXQ8 23-120): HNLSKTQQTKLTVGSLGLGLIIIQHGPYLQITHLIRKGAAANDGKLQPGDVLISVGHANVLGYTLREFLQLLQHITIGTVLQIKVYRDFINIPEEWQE
Chain of PARD3_1, Q8TEW0 (Q8TEW0 264-372): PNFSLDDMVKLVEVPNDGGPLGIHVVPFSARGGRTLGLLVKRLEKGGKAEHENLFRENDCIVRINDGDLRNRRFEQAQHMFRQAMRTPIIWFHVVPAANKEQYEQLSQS

Binder | pKd [1] | pKd [2] | pKd [3] | pKd [4] | pKd [5] | pKd [6] | pKd [7] | pKd [8] | pKd [9] | pKd [10] | pKd [11] | pKd [12] | pKd [13] | pKd [14] | pKd [15] | pKd [16] | pKd [17] | pKd [18] | pKd [19] | pKd [20] | other results
B1 | 4.74 | 4.5 | 4.92 | below the threshold | below the threshold | below the threshold | below the threshold | below the threshold | below the threshold | below the threshold | below the threshold | below the threshold | below the threshold | below the threshold | below the threshold | below the threshold | below the threshold | below the threshold | 4.76 | below the threshold | pKd [21]: below the threshold; pKd [22]: below the threshold
B2 | below the threshold | below the threshold | 4.86 | below the threshold | below the threshold | 4.77 | below the threshold | below the threshold | below the threshold | below the threshold | below the threshold | 4.16 | 4.05 | below the threshold | below the threshold | below the threshold | below the threshold | below the threshold | below the threshold | below the threshold | pKd [21]: below the threshold; pKd [22]: below the threshold
B3 | 4.47 | 4.14 | below the threshold | below the threshold | below the threshold | below the threshold | below the threshold | below the threshold | below the threshold | below the threshold | below the threshold | below the threshold | below the threshold | below the threshold | 4.11 | 4.05 | below the threshold | below the threshold | below the threshold | below the threshold | pKd [21]: below the threshold; pKd [22]: below the threshold

— paper PMC9482650, “Quantitative fragmentomics allow affinity mapping of interactomes” (Nature Communications, 2022)
